Values quoted from earlier work, collected in publication PMC3686100.

Target: ClpP (Escherichia coli) (UniProt P0A6G7)
Chain of UniProt P0A6G7 (P0A6G7 15-207): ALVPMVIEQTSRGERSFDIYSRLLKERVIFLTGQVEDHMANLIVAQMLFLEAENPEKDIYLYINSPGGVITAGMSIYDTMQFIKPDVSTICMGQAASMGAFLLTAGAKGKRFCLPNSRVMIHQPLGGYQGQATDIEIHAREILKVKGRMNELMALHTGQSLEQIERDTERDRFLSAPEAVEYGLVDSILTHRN

Kd: 0.09 µM
Substance: ClpX (from UniProt P0A6H1)
